Assay results taken from US20090156496A1, “METHODS AND COMPOSITIONS FOR TREATING AND PREVENTING PERIPHERAL NERVE DAMAGE” (CHILDREN'S MEDICAL CENTER CORPORATION, INC., priority 2006, published 2009).

Assays:
[1] = biological target: high-affinity oncomodulin receptor on retinal ganglion cells (RGCs) (rat); test: AP-OM binding to lightly fixed, forskolin-treated immunopurified rat RGCs; saturation curve
[2] = biological target: high-affinity oncomodulin receptor on retinal ganglion cells (RGCs) (rat); test: AP-OM binding to lightly fixed, forskolin-treated immunopurified rat RGCs; saturation curve and Scatchard plot
[3] = biological target: high-affinity oncomodulin receptor on retinal ganglion cells (RGCs) (rat); test: cell-based or functional assay
[4] = biological target: high-affinity oncomodulin receptor on retinal ganglion cells (RGCs) (rat); test: displacement of AP-OM (40 nM, equilibrium binding) from RGCs by unlabeled oncomodulin

| Substance | concentration at which binding saturated [1] [nM] | Kd [2] [nM] | effective concentration for half-maximum response (EC50) of axon outgrowth from RGCs [3] [nM] | IC50 [4] [nM] |
| --- | --- | --- | --- | --- |
| alkaline phosphatase (AP)-oncomodulin fusion protein (from UniProt P02631 1-109) (ligand) | > 100 | 28 | – | – |
| recombinant rat oncomodulin (from UniProt P02631 2-109) (ligand) | – | – | 3.8 | 30 |
